Here are results for two variants from IntAct's records for PubMed 11027267.

Sequences and labels used below:
B1: KRR1 small subunit processome component (Saccharomyces cerevisiae), P25586 (parent)
chain: MVSTHNRDKPWDTDDIDKWKIEEFKEEDNASGQPFAEESSFMTLFPKYRESYLKTIWNDVTRALDKHNIACVLDLVEGSMTVKTTRKTYDPAIILKARDLIKLLARSVPFPQAVKILQDDMACDVIKIGNFVTNKERFVKRRQRLVGPNGNTLKALELLTKCYILVQGNTVSAMGPFKGLKEVRRVVEDCMKNIHPIYHIKELMIKRELAKRPELANEDWSRFLPMFKKRNVARKKPKKIRNVEKKVYTPFPPAQLPRKVDLEIESGEYFLSKREKQMKKLNEQKEKQMEREIERQEERAKDFIAPEEEAYKPNQN
partner: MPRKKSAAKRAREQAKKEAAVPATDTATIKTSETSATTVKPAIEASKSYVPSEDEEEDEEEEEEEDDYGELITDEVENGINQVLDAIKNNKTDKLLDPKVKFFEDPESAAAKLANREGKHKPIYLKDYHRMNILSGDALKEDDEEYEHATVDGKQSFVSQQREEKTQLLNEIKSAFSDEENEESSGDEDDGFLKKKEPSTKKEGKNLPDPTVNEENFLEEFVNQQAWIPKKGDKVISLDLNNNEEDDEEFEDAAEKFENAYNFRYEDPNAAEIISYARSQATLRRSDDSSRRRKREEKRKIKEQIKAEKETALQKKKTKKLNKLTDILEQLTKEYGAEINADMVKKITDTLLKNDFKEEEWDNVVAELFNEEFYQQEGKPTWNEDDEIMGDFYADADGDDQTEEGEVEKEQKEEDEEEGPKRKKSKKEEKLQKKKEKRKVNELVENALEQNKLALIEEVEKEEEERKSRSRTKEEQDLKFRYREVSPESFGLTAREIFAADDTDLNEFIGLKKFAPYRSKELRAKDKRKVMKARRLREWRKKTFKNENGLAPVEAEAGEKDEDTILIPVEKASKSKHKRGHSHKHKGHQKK

In the experiment the parent is B1. The note with it: with kri1_yeast KRI1, P42846.
For K20E;K66N;C162R;D261A, the “effect of a mutation on the interaction” value is given as “decreasing interaction”.
On to F45L;L95S;R207G, for which the “effect of a mutation on the interaction” value is “decreasing interaction”.
